Earlier results as cited in patent US20180147231A1, “METHOD FOR TREATMENT AND PROGNOSIS OF COLORECTAL CANCER” (Oxford University Innovation Limited, priority 2015, published 2018).

T1: IL-22R complex (Homo sapiens, UniProt Q08334+Q8N6P7)
T1 sequence (Q8N6P7 16-228 limits assumed): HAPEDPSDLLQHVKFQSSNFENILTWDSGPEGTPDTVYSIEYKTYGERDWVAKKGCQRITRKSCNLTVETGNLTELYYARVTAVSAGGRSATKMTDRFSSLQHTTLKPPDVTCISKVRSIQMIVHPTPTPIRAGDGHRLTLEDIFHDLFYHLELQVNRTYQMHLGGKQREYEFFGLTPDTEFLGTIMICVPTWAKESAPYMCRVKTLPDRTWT
T1 sequence (Q08334 20-220 limits assumed): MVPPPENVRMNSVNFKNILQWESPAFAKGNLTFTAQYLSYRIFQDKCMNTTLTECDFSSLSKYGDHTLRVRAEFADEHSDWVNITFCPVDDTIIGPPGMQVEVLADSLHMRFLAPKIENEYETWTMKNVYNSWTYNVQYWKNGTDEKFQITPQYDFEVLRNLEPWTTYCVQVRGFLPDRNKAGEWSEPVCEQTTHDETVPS

T2: IL-22RA1 subunit of the receptor (Homo sapiens, UniProt Q8N6P7)
T2 sequence (Q8N6P7 16-574): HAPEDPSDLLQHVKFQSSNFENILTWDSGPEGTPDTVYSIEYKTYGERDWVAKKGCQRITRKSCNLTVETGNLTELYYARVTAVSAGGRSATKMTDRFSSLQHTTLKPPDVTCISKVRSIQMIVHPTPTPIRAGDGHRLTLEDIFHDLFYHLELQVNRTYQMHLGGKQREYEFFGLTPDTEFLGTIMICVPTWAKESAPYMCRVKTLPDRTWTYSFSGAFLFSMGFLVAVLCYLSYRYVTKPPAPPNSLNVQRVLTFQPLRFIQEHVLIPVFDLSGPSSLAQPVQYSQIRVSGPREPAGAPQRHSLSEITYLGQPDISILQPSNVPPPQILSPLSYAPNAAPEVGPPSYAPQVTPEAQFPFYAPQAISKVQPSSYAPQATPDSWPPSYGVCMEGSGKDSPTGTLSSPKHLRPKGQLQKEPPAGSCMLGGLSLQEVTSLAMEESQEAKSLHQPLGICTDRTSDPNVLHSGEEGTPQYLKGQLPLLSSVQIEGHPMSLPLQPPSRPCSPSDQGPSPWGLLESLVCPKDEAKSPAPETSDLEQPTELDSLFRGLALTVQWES


Experiments:
IL-22R complex = molecular target: T1, IL-22R complex; settings: variant of IL-22 (SEQ ID NO: 5) compared with wild type; cited from earlier work
[1] = molecular target: T2, IL-22RA1 subunit of the receptor; settings: variant of IL-22 (SEQ ID NO: 5) compared with wild type; cited from earlier work

Molecule	Binding to the IL-22R complex (IL-22R complex)	Binding to the IL-22RA1 subunit of the receptor [1]
N54G: reduced-function variant of IL-22 (SEQ ID NO: 5) in which N54 is mutated from asparagine to glutamine (protein, listed as Homo sapiens) MAALQKSVSSFLMGTLATSCLLLLALLVQGGAAAPISSHCRLDKSNFQQPYITGRTFMLAKEASLADNNTDVRLIGEKLFHGVSMSERCYLMKQVLNFTLEEVLFPQSDRFQPYMQEVVPFLARLSNRLSTCHIEGDDLHIQRNVQKLKDTVKKLGESGEIKAIGELDLLFMSLRNACI	reduce binding	
T56A: variant of IL-22 (SEQ ID NO: 5) in which T56 is mutated to alanine (protein, listed as Homo sapiens) MAALQKSVSSFLMGTLATSCLLLLALLVQGGAAAPISSHCRLDKSNFQQPYITNRAFMLAKEASLADNNTDVRLIGEKLFHGVSMSERCYLMKQVLNFTLEEVLFPQSDRFQPYMQEVVPFLARLSNRLSTCHIEGDDLHIQRNVQKLKDTVKKLGESGEIKAIGELDLLFMSLRNACI	reduce binding	
N54A: variant of IL-22 (SEQ ID NO: 5) in which N54 is mutated to alanine (protein, listed as Homo sapiens) MAALQKSVSSFLMGTLATSCLLLLALLVQGGAAAPISSHCRLDKSNFQQPYITARTFMLAKEASLADNNTDVRLIGEKLFHGVSMSERCYLMKQVLNFTLEEVLFPQSDRFQPYMQEVVPFLARLSNRLSTCHIEGDDLHIQRNVQKLKDTVKKLGESGEIKAIGELDLLFMSLRNACI	reduce binding	
Y51A: variant of IL-22 (SEQ ID NO: 5) in which Y51 is mutated to A (protein, listed as Homo sapiens) MAALQKSVSSFLMGTLATSCLLLLALLVQGGAAAPISSHCRLDKSNFQQPAITNRTFMLAKEASLADNNTDVRLIGEKLFHGVSMSERCYLMKQVLNFTLEEVLFPQSDRFQPYMQEVVPFLARLSNRLSTCHIEGDDLHIQRNVQKLKDTVKKLGESGEIKAIGELDLLFMSLRNACI	reduce binding	
I161A: variant of IL-22 (SEQ ID NO: 5) in which I161 is mutated to alanine (protein, listed as Homo sapiens) MAALQKSVSSFLMGTLATSCLLLLALLVQGGAAAPISSHCRLDKSNFQQPYITNRTFMLAKEASLADNNTDVRLIGEKLFHGVSMSERCYLMKQVLNFTLEEVLFPQSDRFQPYMQEVVPFLARLSNRLSTCHIEGDDLHIQRNVQKLKDTVKKLGESGEAKAIGELDLLFMSLRNACI		reduce binding
R55A: variant of IL-22 (SEQ ID NO: 5) in which R55 is mutated to alanine (protein, listed as Homo sapiens) MAALQKSVSSFLMGTLATSCLLLLALLVQGGAAAPISSHCRLDKSNFQQPYITNATFMLAKEASLADNNTDVRLIGEKLFHGVSMSERCYLMKQVLNFTLEEVLFPQSDRFQPYMQEVVPFLARLSNRLSTCHIEGDDLHIQRNVQKLKDTVKKLGESGEIKAIGELDLLFMSLRNACI	reduce binding	
V72A: variant of IL-22 (SEQ ID NO: 5) in which V72 is mutated to A (protein, listed as Homo sapiens) MAALQKSVSSFLMGTLATSCLLLLALLVQGGAAAPISSHCRLDKSNFQQPYITNRTFMLAKEASLADNNTDARLIGEKLFHGVSMSERCYLMKQVLNFTLEEVLFPQSDRFQPYMQEVVPFLARLSNRLSTCHIEGDDLHIQRNVQKLKDTVKKLGESGEIKAIGELDLLFMSLRNACI		reduce binding
F121A: variant of IL-22 (SEQ ID NO: 5) in which F121 is mutated to alanine (protein, listed as Homo sapiens) MAALQKSVSSFLMGTLATSCLLLLALLVQGGAAAPISSHCRLDKSNFQQPYITNRTFMLAKEASLADNNTDVRLIGEKLFHGVSMSERCYLMKQVLNFTLEEVLFPQSDRFQPYMQEVVPALARLSNRLSTCHIEGDDLHIQRNVQKLKDTVKKLGESGEIKAIGELDLLFMSLRNACI	reduce binding	
E117A: variant of IL-22 (SEQ ID NO: 5) in which E117 is mutated to alanine (protein, listed as Homo sapiens) MAALQKSVSSFLMGTLATSCLLLLALLVQGGAAAPISSHCRLDKSNFQQPYITNRTFMLAKEASLADNNTDVRLIGEKLFHGVSMSERCYLMKQVLNFTLEEVLFPQSDRFQPYMQAVVPFLARLSNRLSTCHIEGDDLHIQRNVQKLKDTVKKLGESGEIKAIGELDLLFMSLRNACI	reduce binding	
K162A: variant of IL-22 (SEQ ID NO: 5) in which K162 is mutated to alanine (protein, listed as Homo sapiens) MAALQKSVSSFLMGTLATSCLLLLALLVQGGAAAPISSHCRLDKSNFQQPYITNRTFMLAKEASLADNNTDVRLIGEKLFHGVSMSERCYLMKQVLNFTLEEVLFPQSDRFQPYMQEVVPFLARLSNRLSTCHIEGDDLHIQRNVQKLKDTVKKLGESGEIAAIGELDLLFMSLRNACI		reduce binding
D67A: variant of IL-22 (SEQ ID NO: 5) in which D67 is mutated to alanine (protein, listed as Homo sapiens) MAALQKSVSSFLMGTLATSCLLLLALLVQGGAAAPISSHCRLDKSNFQQPYITNRTFMLAKEASLAANNTDVRLIGEKLFHGVSMSERCYLMKQVLNFTLEEVLFPQSDRFQPYMQEVVPFLARLSNRLSTCHIEGDDLHIQRNVQKLKDTVKKLGESGEIKAIGELDLLFMSLRNACI		reduce binding
